Target: T1, NiV-G-Fc, a fusion construct between the ectodomain of NiV-G and the Fc region of human IgG1 (Nipah virus, UniProt Q9IH62 71-602)
T1 chain: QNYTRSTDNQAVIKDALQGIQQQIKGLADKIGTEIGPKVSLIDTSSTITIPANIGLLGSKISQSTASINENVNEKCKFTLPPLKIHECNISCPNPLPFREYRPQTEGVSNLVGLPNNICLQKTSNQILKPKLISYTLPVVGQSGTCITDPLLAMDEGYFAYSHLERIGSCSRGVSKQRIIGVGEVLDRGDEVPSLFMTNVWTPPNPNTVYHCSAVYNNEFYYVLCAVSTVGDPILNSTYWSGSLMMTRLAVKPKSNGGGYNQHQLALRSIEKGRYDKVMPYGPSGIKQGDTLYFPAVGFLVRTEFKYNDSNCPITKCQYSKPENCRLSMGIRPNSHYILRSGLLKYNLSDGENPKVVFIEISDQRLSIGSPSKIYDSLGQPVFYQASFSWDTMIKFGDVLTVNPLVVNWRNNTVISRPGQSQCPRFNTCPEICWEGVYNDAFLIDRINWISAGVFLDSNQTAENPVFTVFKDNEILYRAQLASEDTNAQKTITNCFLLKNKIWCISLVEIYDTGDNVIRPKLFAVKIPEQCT
Assay: SPR

Binder	Kd
ephrinB3-Fc (soluble Fc-fusion ephrin protein, purchased) (Fc fusion) LSLEPVYWNSANKRFQAEGGYVLYPQIGDRLDLLCPRARPPGPHSSPNYEFYKLYLVGGAQGRRCEAPPAPNLLLTCDRPDLDLRFTIKFQEYSPNLWGHEFRSHHDYYIIATSDGTREGLESLQGGVCLTRGMKVLLRVGQSPRGGAVPRKPVSEMPMERDRGAAHSLEPGKENLPGDPTSNATSRGAEGPLPPPSMP	2.83 nM
ephrinB2-Fc (soluble Fc-fusion ephrin protein, purchased) (Fc fusion) RSIVLEPIYWNSSNSKFLPGQGLVLYPQIGDKLDIICPKVDSKTVGQYEYYKVYMVDKDQADRCTIKKENTPLLNCARPDQDVKFTIKFQEFSPNLWGLEFQKNKDYYIISTSNGSLEGLDNQEGGVCQTRAMKILMKVGQDASSAGSARNHGPTRRPELEAGTNGRSSTTSPFVKPNPGSSTDGNSAGHSGNNLLGSEVA	0.11 nM
